# Results as given in publication PMC6736547.
# Biological target: Pcdh γB6 ectodomain, γB6_(EC1–6), wild type
# Experiment: cryo-EM structure
substance,measurement,value
"Pcdh γB6 ectodomain, γB6_(EC1–6), wild type (domain or fragment)",stoichiometry N,4
